According to patent US20260091143A1, “NEAR-INFRARED IMAGING AGENT AND USES THEREOF” (CASE WESTERN RESERVE UNIVERSITY, priority 2022, published 2026):
Where a SMILES comes first, the peptide text is derived from it. Where no end group is shown, it is not given here. The star is where a group is joined. X1 = CC1(C)C(/C=C/C=C/C=C/C=C2/N(CCCCCC(=O)*)c3ccc4ccccc4c3C2(C)C)=[N+](CCCCS(=O)(=O)[O-])c2ccc3ccccc3c21; Tide Fluor 8WS = fluorophore acid, coupled by amide to the N-terminal amine

Assays:
[1] = Whole-body and ventral fluorescent imaging of biodistribution and clearance; assay type: in vivo, mice
Excerpt: (§1) The IVIS Spectrum In vivo Imaging System and Living Image analysis software, (Perkin Elmer, Hopkinton, MA, USA) were used for acquisition and analysis of mouse images. Prior to the experiment, mice were weighed, and baseline images acquired using the appropriate filter sets and the autoexposure setting. Three filter sets for excitation/emission were used: 745 nm/800 nm, 745 nm/820 nm, 745 nm/840 nm. The filter set showing highest fluorescence intensity for a fluorophore was used throughout for that dye. For ICG, 745 nm/820 nm was used and for IRDye® 800CW and Tide Fluor™ 8WS, 745 nm/800 nm was used. Agent stocks were diluted in saline or PBS to ˜100 μM and the volume needed for the desired dose of 300 nmol/kg or 400 nmol/kg calculated. Doses were loaded into polyurethane tubing and connected to a 1 mL syringe as previously described. Mice were anesthetized in an induction chamber with 2% isoflurane-oxygen and moved onto a 37° C. heated platform with a nose cone. 26-gauge veterinary catheters were placed in each tail and the preloaded tubing was connected. Agents were injected over 30 sec, catheters were removed, and animals placed in the prepared Spectrum imaging chamber. Images were acquired beginning 10 min after injecting the agents. For SBK2-CCLE-IR800 and Scram-CCLE-IR800, images were acquired every 10 min for 60 min. For the ICG-labeled and TF8WS-labeled peptides, images were acquired at 10 min, 30 min, 1 h, 2 h, 4 h, 8 h, and 24 h. At the end of the imaging time, the animals were euthanized by CO2 asphyxiation, and the tumor and other organs excised and imaged on the Spectrum.

[2] = Ex vivo fluorescence in excised kidneys, spleen and liver; design: species or system mice; details: 24 h; for p-value, average radiant efficiency of excised kidney vs SBK2-ICG / p-value, average radiant efficiency of excised kidney vs Scram-CLE-ICG / p-value, average radiant efficiency of excised kidney vs Scram-ICG / p-value, average radiant efficiency of excised liver vs SBK2-ICG / p-value, average radiant efficiency of excised liver vs Scram-CLE-ICG / p-value, average radiant efficiency of excised liver vs Scram-ICG / p-value, average radiant efficiency of excised spleen vs SBK2-ICG / p-value, average radiant efficiency of excised spleen vs Scram-CLE-ICG / p-value, average radiant efficiency of excised spleen vs Scram-ICG / p-value, average radiant efficiency of excised kidney vs SBK2-CLE-ICG / p-value, average radiant efficiency of excised liver vs SBK2-CLE-ICG / p-value, average radiant efficiency of excised spleen vs SBK2-CLE-ICG: ICG-labeled agents 300 nmol/kg, ICG 400 nmol/kg, Welch's t-test
Excerpt: as §1
(§2) Living Image analysis software was used for region of interest (ROI) analysis of the optical data. Images acquired for each time point consist of a fluorescent image superimposed on a photographic image. Binning was set to 1 and in vivo tumor ROIs were manually drawn based on contours visible in the black and white photograph for each timepoint. After outlining the tumor ROIs, fluorescence was measured with the built-in Spectrum function. For excised tumors, kidneys, spleen and liver, ROIs were drawn around the perimeter of the tumor or organ.
(§3) LivingImage software measures fluorescence intensity in units of radiant efficiency. For these analyses, average radiant efficiency measurements in (photons/s/cm^2/steradian)/(μW/cm^2) were used for further comparisons to account for differences in tumor and organ size. GraphPad Prism 9 was used for plots and statistical analyses. Where indicated, means for pairs of agents were compared using a two-tailed t-test with Welch's correction and statistical significance was assumed at p<0.05. Welch's correction was used to eliminate assumptions about variance between the groups being compared.

[3] = system: LN-229 glioma flank tumor; experiment: In vivo fluorescent imaging of tumor signal in LN-229 flank tumor-bearing nude mice; details: 400 nmol/kg
Excerpt: All applicable institutional and/or NIH guidelines for the care and use of animals were followed. The Case Western Reserve University Institutional Animal Care and Use Committee reviewed and approved the animal protocols. Outbred homozygous female nude mice (Fox1^nu/Fox1^nu) were purchased from Jackson Laboratory, Bar Harbor, ME, USA. Details of the human glioblastoma LN-229 cell line have been described previously. LN-229 cells express the PTPμ biomarker and have been used in previous studies for evaluating PTPμ-targeted agents using different imaging modalities. Flank tumors were started in the right flank of mice at approximately 7 weeks of age by injecting a mixture of 2×10^6 cells and Matrigel® Matrix (Corning®, Corning Inc., Corning, NY, USA). Experiments were performed in mice 4 to 8 weeks after implanting the tumors.
as §1, §2, §3

Molecule | p-value, average radiant efficiency of excised kidney vs SBK2-ICG [2] | p-value, average radiant efficiency of excised kidney vs Scram-CLE-ICG [2] | p-value, average radiant efficiency of excised kidney vs Scram-ICG [2] | p-value, average radiant efficiency of excised liver vs SBK2-ICG [2] | p-value, average radiant efficiency of excised liver vs Scram-CLE-ICG [2] | p-value, average radiant efficiency of excised liver vs Scram-ICG [2] | p-value, average radiant efficiency of excised spleen vs SBK2-ICG [2] | p-value, average radiant efficiency of excised spleen vs Scram-CLE-ICG [2] | p-value, average radiant efficiency of excised spleen vs Scram-ICG [2] | p-value, average radiant efficiency of excised kidney vs SBK2-CLE-ICG [2] | p-value, average radiant efficiency of excised liver vs SBK2-CLE-ICG [2] | p-value, average radiant efficiency of excised spleen vs SBK2-CLE-ICG [2] | other results
CC1(C)C(=CC=C2CCCC(C=CC3=[N+](CCCCCC(=O)[O-])c4ccc(S(=O)(=O)[O-])cc4C3(C)C)=C2Oc2ccc(S(=O)(=O)[O-])cc2)N(CCCCS(=O)(=O)[O-])c2ccc(S(=O)(=O)[O-])cc21.[Na+].[Na+].[Na+].[Na+] [IRDye® 800CW] | – | – | – | – | – | – | – | – | – | – | – | – | clearance compared to the peptide-containing agents ([1]; dye only, data not shown): cleared more slowly; overall body fluorescence compared to IRDye 800CW-labeled peptides at the same dose ([1]; dye only, data not shown): more overall fluorescence throughout the body
CC(C)C[C@H](NC(=O)[C@@H](NC(=O)[C@H](CC(N)=O)NC(=O)[C@@H](NC(=O)[C@H](CCC(N)=O)NC(=O)[C@H](CCC(=O)O)NC(=O)[C@H](Cc1c[nH]c2ccccc12)NC(=O)[C@H](CC(N)=O)NC(=O)[C@H](Cc1ccccc1)NC(=O)[C@H](CC(=O)O)NC(=O)[C@H](CC(=O)O)NC(=O)CNC(=O)[C@H](CCC(=O)O)NC(=O)CNC(=O)[C@H](CO)NC(=O)CNC(=O)CNC(=O)[C@H](CO)NC(=O)CNC(=O)CNC(=O)CCCCCN1/C(=C/C=C/C=C/C=C/C2=[N+](CCCCS(=O)(=O)[O-])c3ccc4ccccc4c3C2(C)C)C(C)(C)c2c1ccc1ccccc21)C(C)C)[C@@H](C)O)C(=O)N[C@H](C(=O)N[C@@H](CCCCN)C(=O)N1CCC[C@H]1C(=O)N[C@H](C(=O)N[C@@H](CO)C(=O)N[C@@H](CC(=O)O)C(=O)O)[C@@H](C)O)[C@@H](C)O [SBK2-CLE-ICG] (X1-GGSGGSGEGDDFNWEQVNTLTKPTSD-OH) | <0.001 | 0.034 | ns | <0.001 | ns | ns | <0.001 | 0.015 | ns | – | – | – | clearance compared to SBK2-ICG ([1]; mouse, in vivo): cleared more rapidly
CC(C)C[C@H](NC(=O)[C@@H](NC(=O)[C@H](CC(N)=O)NC(=O)[C@@H](NC(=O)[C@H](CCC(N)=O)NC(=O)[C@H](CCC(=O)O)NC(=O)[C@H](Cc1c[nH]c2ccccc12)NC(=O)[C@H](CC(N)=O)NC(=O)[C@H](Cc1ccccc1)NC(=O)[C@H](CC(=O)O)NC(=O)[C@H](CC(=O)O)NC(=O)CNC(=O)[C@H](CCC(=O)O)NC(=O)CNC(=O)CCCCCN1/C(=C/C=C/C=C/C=C/C2=[N+](CCCCS(=O)(=O)[O-])c3ccc4ccccc4c3C2(C)C)C(C)(C)c2c1ccc1ccccc21)C(C)C)[C@@H](C)O)C(=O)N[C@H](C(=O)N[C@@H](CCCCN)C(=O)N1CCC[C@H]1C(=O)N[C@H](C(=O)N[C@@H](CO)C(=O)N[C@@H](CC(=O)O)C(=O)O)[C@@H](C)O)[C@@H](C)O [SBK2-ICG] (X1-GEGDDFNWEQVNTLTKPTSD-OH) | – | <0.001 | <0.001 | – | <0.001 | <0.001 | – | <0.001 | <0.001 | <0.001 | <0.001 | <0.001 | –
CC(C)C[C@H](NC(=O)[C@H](CC(=O)O)NC(=O)[C@H](CC(N)=O)NC(=O)[C@H](CC(=O)O)NC(=O)[C@@H](NC(=O)CNC(=O)[C@@H](NC(=O)[C@H](CCC(=O)O)NC(=O)[C@@H]1CCCN1C(=O)[C@H](CCC(N)=O)NC(=O)[C@@H](NC(=O)[C@H](Cc1ccccc1)NC(=O)CNC(=O)[C@H](CO)NC(=O)CNC(=O)CNC(=O)[C@H](CO)NC(=O)CNC(=O)CNC(=O)CCCCCN1/C(=C/C=C/C=C/C=C/C2=[N+](CCCCS(=O)(=O)[O-])c3ccc4ccccc4c3C2(C)C)C(C)(C)c2c1ccc1ccccc21)[C@@H](C)O)[C@@H](C)O)[C@@H](C)O)C(=O)N[C@@H](Cc1c[nH]c2ccccc12)C(=O)N[C@@H](CO)C(=O)N[C@H](C(=O)N[C@@H](CC(=O)O)C(=O)N[C@@H](CC(N)=O)C(=O)N[C@@H](CCC(=O)O)C(=O)N[C@@H](CCCCN)C(=O)O)C(C)C [Scram-CLE-ICG] (X1-GGSGGSGFTQPETGTDNDLWSVDNEK-OH) | <0.001 | – | ns | <0.001 | – | ns | <0.001 | – | ns | 0.034 | ns | 0.015 | –
CC(C)C[C@H](NC(=O)[C@H](CC(=O)O)NC(=O)[C@H](CC(N)=O)NC(=O)[C@H](CC(=O)O)NC(=O)[C@@H](NC(=O)CNC(=O)[C@@H](NC(=O)[C@H](CCC(=O)O)NC(=O)[C@@H]1CCCN1C(=O)[C@H](CCC(N)=O)NC(=O)[C@@H](NC(=O)[C@H](Cc1ccccc1)NC(=O)CNC(=O)CCCCCN1/C(=C/C=C/C=C/C=C/C2=[N+](CCCCS(=O)(=O)[O-])c3ccc4ccccc4c3C2(C)C)C(C)(C)c2c1ccc1ccccc21)[C@@H](C)O)[C@@H](C)O)[C@@H](C)O)C(=O)N[C@@H](Cc1c[nH]c2ccccc12)C(=O)N[C@@H](CO)C(=O)N[C@H](C(=O)N[C@@H](CC(=O)O)C(=O)N[C@@H](CC(N)=O)C(=O)N[C@@H](CCC(=O)O)C(=O)N[C@@H](CCCCN)C(=O)O)C(C)C [Scram-ICG] (X1-GFTQPETGTDNDLWSVDNEK-OH) | <0.001 | ns | – | <0.001 | ns | – | <0.001 | ns | – | ns | ns | ns | clearance compared to either of the CLE-containing agents ([1]; 400 nmol/kg, 24 h): clear more slowly
SBK2-TF8WS: Tide Fluor 8WS conjugated via amide to N-terminus of SBK2 peptide (SEQ ID NO: 5) ({Tide Fluor 8WS}-GEGDDFNWEQVNTLTKPTSD) | – | – | – | – | – | – | – | – | – | – | – | – | difference in average radiant efficiency in kidney, spleen, or liver vs Scram-TF8WS ([2]; 400 nmol/kg): no significant differences; tumor signal at 24 h (not specific for PTPμ) [3]: high tumor-specific signal; difference in in vivo tumor average radiant efficiency vs Scram-TF8WS ([3]; at any time out to 24 h): No significant differences; specific tumor labeling ([3]; versus Scrambled control agents): no specific tumor labeling
Scram-TF8WS: Tide Fluor 8WS conjugated to N-terminus of Scrambled control peptide (SEQ ID NO: 48) ({Tide Fluor 8WS}-GFTQPETGTDNDLWSVDNEK) | – | – | – | – | – | – | – | – | – | – | – | – | tumor signal at 24 h (not specific for PTPμ) [3]: high tumor-specific signal
